The source of these data is patent publication US20170210813A1 (Regeneron, published 2017).

The chains are these.
T1: Macaca fascicularis PDGFRb.mmh (Macaca fascicularis)
T1 construct: Soluble monomeric construct; also called mfPDGFRb.mmh
T1 chain: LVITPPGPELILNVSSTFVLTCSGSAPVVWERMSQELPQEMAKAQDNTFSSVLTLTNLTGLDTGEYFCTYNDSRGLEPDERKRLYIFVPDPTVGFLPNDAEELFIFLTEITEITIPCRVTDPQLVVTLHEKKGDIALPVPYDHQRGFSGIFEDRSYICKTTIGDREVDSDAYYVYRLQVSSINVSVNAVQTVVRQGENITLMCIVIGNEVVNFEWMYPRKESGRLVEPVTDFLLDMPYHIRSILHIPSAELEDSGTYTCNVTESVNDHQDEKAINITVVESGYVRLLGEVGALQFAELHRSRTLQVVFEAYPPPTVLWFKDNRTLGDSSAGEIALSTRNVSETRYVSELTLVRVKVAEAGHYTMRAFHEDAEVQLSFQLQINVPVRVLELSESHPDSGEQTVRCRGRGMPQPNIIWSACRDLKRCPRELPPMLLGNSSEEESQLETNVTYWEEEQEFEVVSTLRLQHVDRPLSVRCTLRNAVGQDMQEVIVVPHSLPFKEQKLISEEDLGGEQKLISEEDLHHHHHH

T2: human PDGFRb.mFc (human)
T2 construct: Soluble dimeric construct with mouse Fc; also called hPDGFRb.mFc; soluble human PDGFR-beta.mFc
T2 chain: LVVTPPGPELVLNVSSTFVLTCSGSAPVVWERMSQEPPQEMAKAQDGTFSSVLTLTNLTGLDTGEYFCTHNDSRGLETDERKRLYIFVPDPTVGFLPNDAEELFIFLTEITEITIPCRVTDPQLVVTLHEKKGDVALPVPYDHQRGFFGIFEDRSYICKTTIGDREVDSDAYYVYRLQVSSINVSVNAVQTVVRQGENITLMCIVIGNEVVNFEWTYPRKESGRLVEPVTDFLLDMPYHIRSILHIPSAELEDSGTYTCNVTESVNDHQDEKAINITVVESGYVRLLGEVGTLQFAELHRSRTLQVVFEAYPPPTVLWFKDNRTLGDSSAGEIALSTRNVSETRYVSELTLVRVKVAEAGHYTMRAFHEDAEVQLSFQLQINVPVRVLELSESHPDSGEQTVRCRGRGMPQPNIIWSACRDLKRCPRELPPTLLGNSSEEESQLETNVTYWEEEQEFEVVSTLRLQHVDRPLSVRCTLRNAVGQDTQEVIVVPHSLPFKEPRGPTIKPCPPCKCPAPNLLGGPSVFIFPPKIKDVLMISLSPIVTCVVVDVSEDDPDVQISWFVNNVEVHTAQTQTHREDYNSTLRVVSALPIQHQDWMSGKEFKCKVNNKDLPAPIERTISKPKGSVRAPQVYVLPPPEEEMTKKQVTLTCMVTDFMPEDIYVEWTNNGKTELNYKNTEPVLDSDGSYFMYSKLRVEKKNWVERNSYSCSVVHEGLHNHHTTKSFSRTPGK

B1: H1M3310N (antibody, mouse IgG1, V domains shown)
VH: EVQLLESGGDLVQPGGSLRLSCAASGITFSSFAMSWVRQAPGKGLEWVSTVSVSAGITYYADSVKGRFTISRDNSKNTLYLQMNSLRAEDTAIYYCAKSSCTTNSCPAYFDYWGLGTLVTVSS
VL: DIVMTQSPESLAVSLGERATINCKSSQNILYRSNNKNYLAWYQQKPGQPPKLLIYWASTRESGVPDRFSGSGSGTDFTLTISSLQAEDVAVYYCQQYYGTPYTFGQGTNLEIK
notes: mouse IgG1 Fc (H1M prefix)
B2: H2M3373N (antibody, V domains shown)
VH: EVQLRDSGGGLVQPGGSLRLSCVASGFTFSSYWMSWVRQAPGKGLEWVVNINRDGSEKYYVDSVKGRFIISRDNTKNSLYLQMESLRAEDTAVYYCARDPPYHLYGMDVWGQGTTVTVSS
VL: DIQMTQSPSSLSASVGDRVTITCRTSQGIRVDLAWYQQKPGKAPERLIYAASSLQSGVPSRFSGGGSGTEFTLTVSSLQPEDFATYYCLQHHNFPYTFGQGTKLEIK
notes: mouse Fc (H2M prefix; isotype not spelled out)
B3: H2M3368N (antibody, V domains shown)
VH: QVQLQQWGAGLLKPSETLSLTCAVYGGSFSGYYWTWIRQSPGKGLEWMGEISHRGTTNYNPSLKSRLTISLDTSNNHFSLKLSSVTAADTAVYYCAREERLGMGYDYFGLDVWGQGTTVTVSS
VL: EIVLTQSPATLSLSPGERATLSCRASQSVSTYLTWYQQKPGQAPRLLIYDASNRATGIPARFSGSGSGTDFTLTISSLEPEDCAVYYCQQRSIWITFGQGTRLEIK
notes: as for B2
B4: H2M3365N (antibody, V domains shown)
VH: EVQLVESGGGLVQPGRSLRLSCAASGFTFDDFAMHWVRQVPGKGLEWVSGISWSSGTIGYVGSVKGRFTISRDNAKNSLYLQMNSLRAEDTAMYFCTKDKAAFHDAFDIWGQGTMVTVSS
VL: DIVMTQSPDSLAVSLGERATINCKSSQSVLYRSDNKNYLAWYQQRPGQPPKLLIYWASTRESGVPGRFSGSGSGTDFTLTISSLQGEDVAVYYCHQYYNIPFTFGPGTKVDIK
notes: as for B2
B5: H2M3363N (antibody, V domains shown)
VH: QVQVQESGPGLVKPSETLSLTCTVSGDSISSSSYYWGWIRQPPGKGLEWIGSIYYNGISSYNPSLKSRVTISVESSKNQFSLRLASVTAADTALYYCARHRAARRFSEAFDIWGQGTMVTVSS
VL: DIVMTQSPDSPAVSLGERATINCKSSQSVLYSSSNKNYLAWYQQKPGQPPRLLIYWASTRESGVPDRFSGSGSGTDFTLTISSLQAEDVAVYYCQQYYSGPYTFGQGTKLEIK
notes: as for B2
B6: H1M3361N (antibody, mouse IgG1, V domains shown)
VH: EVQLVESGGGLVQPGGSLRLSCAASGFTFSSYWMTWVRQAPGKGLEWVANIRQDGSDKYYVDSVKGRFTISRDNAKNSLFLQMNSLRAEDTAVYYCARTNGGTYGYNHYYYGMDVWGQGTTVTVSS
VL: DIQMTQSPSSLSASVGDRVTITCRASQGIRNDLGWYQLKPGKAPKRLIFAASSLQSGVPSRFSGSGSGTEFTLTISSLQPEDFATYYCLQHNSYPWTFGQGTKVEIK
notes: mouse IgG1 Fc (H1M prefix)

A value given as a limit tells only on which side of the number the result lay.

The target of one test is full length human PDGFR-beta on HEK293 cells (human, UniProt P09619 33-1106). The experiment in a line: cell-based or functional assay.
As to B1, the “IC50, blocking PDGF-BB (250 pM) activation, SRE-luciferase” value (from here on “IC50, blocking PDGF-BB”) amounted to 2.3e-08 M and the “IC50, blocking PDGF-DD (400 pM) activation, SRE-luciferase” value (from here on “IC50, blocking PDGF-DD”) was 2.8e-10 M.
On to B2, for which the “IC50, blocking PDGF-BB” value turned out to be 7e-11 M and the “IC50, blocking PDGF-DD” value is 9.2e-11 M.
Consider B3, for which the “IC50, blocking PDGF-BB” value is 1.8e-10 M and the “IC50, blocking PDGF-DD” value is 1.7e-10 M.
Taken in the same sequence, the figures for B4 were 7.9e-09 M and 1.1e-10 M.
In the case of B5, the “IC50, blocking PDGF-BB” value came out at 7.5e-09 M and the “IC50, blocking PDGF-DD” value was 1.9e-10 M.
Taken in the same sequence, the figures for B6 were 6.8e-09 M and 8.4e-11 M.

Another test deals with T3, hPDGFRb.mmh (human, UniProt P09619 33-531).
T3 construct: Soluble monomeric construct; also called soluble human PDGFR-beta.mmh
Kind of test: SPR, mAb captured, 25 C. The protocol: (§1) Antibodies, expressed as either mouse Fc (prefix H1M; H2M) or human Fc (prefix H4H), were captured on their respective anti-Fc sensor surfaces (Mab capture format). […] Kinetic association (kₐ) and dissociation (kd) rate constants were determined by processing and fitting the data to a 1:1 binding model using Scrubber 2.0 curve fitting software.
(In general: SPR reads the build-up and loss of mass on a sensor chip optically.)
B1 showed a Kd not above 0.07 nM, a koff not above 1e-06 s⁻¹, a kon of 14000 M⁻¹ s⁻¹ and a t1/2 of 11600 min.
The corresponding values for B2 are 12.4 nM, 0.00235 s⁻¹, 189000 M⁻¹ s⁻¹ and 5 min.
B3 returned a Kd of 7.41 nM, an off-rate constant (koff) of 0.000341 s⁻¹, a kon of 46100 M⁻¹ s⁻¹ and a t1/2 of 34 min.
As to B4, binding was put at a Kd of 2.79 nM, the koff was 0.000127 s⁻¹, the kon was determined as 45400 M⁻¹ s⁻¹ and the t1/2 was 91 min.
Taken in the same sequence, the figures for B5 were 46.8 nM, 0.00333 s⁻¹, 71100 M⁻¹ s⁻¹ and 3 min.
As to B6, the Kd was found to be 7.29 nM, the koff turned out to be 0.00126 s⁻¹, the kon was 173000 M⁻¹ s⁻¹ and the t1/2 was found to be 9 min.

In a further test the target is T1, Macaca fascicularis PDGFRb.mmh. The experiment in a line: SPR, mAb captured, 25 C. The protocol:
as §1
For B1, the Kd is not above 0.1 nM, the koff turned out to be 1e-06 s⁻¹ and the t1/2 came out at 192 h.
B2 showed a Kd of 18.3 nM, a koff of 0.00238 s⁻¹, a kon of 130000 M⁻¹ s⁻¹ and a t1/2 of 0.0833 h.
Molecule B3 registered a Kd of 30 nM, a koff of 0.000185 s⁻¹, a kon of 7000 M⁻¹ s⁻¹ and a t1/2 of 1.05 h.
B4 yielded a Kd of 3.4 nM, a koff of 0.000206 s⁻¹, a kon of 60000 M⁻¹ s⁻¹ and a t1/2 of 0.933 h.
Take B5: the Kd came to 1.4 nM, the off-rate constant (koff) turned out to be 6.85e-05 s⁻¹, the kon is 50000 M⁻¹ s⁻¹ and the t1/2 turned out to be 2.82 h.
As to B6, the affinity, expressed as Kd, was 3.9 nM; the koff is 3.89e-05 s⁻¹; the kon was determined as 10000 M⁻¹ s⁻¹; the t1/2 is 4.95 h.

Another test concerns the target T2, human PDGFRb.mFc. The experiment in a line: SPR, mAb captured, 25 C. The protocol: as §1
For the molecule B1, the Kd was not above 0.0789 nM, the koff is not above 1e-06 s⁻¹, the on-rate (kon) is 12700 M⁻¹ s⁻¹ and the t1/2 is 192 h.
Taken in the same sequence, the figures for B2 were 0.507 nM, 0.00024 s⁻¹, 473000 M⁻¹ s⁻¹ and 0.8 h.
Taken in the same sequence, the figures for B3 were 0.313 nM, 3.7e-05 s⁻¹, 118000 M⁻¹ s⁻¹ and 5.22 h.
The corresponding values for B4 are 0.34 nM, 8.01e-05 s⁻¹, 236000 M⁻¹ s⁻¹ and 2.4 h.
For B5, the Kd came to 0.0386 nM, the dissociation rate constant (koff) was 4.03e-06 s⁻¹, the kon was found to be 104000 M⁻¹ s⁻¹ and the t1/2 stood at 47.8 h.
As for B6, the dissociation constant Kd is not above 0.0765 nM, the off-rate (koff) is not above 1e-06 s⁻¹, the kon was determined as 13100 M⁻¹ s⁻¹ and the t1/2 amounted to 192 h.

The next test has as its target T3, hPDGFRb.mmh. The experiment in a line: SPR, mAb captured, 37 C. The protocol: as §1
As for B1, the affinity, expressed as Kd, was 1.83 nM; the dissociation rate constant (koff) was found to be 6.46e-05 s⁻¹; the on-rate constant (kon) turned out to be 35300 M⁻¹ s⁻¹; the t1/2 was 179 min.
The corresponding values for B2 are 29.8 nM, 0.0122 s⁻¹, 410000 M⁻¹ s⁻¹ and 0.9 min.
With B3, binding was characterised by a dissociation constant (Kd) of 6.17 nM, the koff came to 0.000844 s⁻¹, the kon was found to be 137000 M⁻¹ s⁻¹ and the t1/2 stood at 14 min.
As for B4, the Kd was found to be 4.79 nM, the koff stood at 0.000551 s⁻¹, the on-rate (kon) is 115000 M⁻¹ s⁻¹ and the t1/2 came out at 21 min.
Take B5: the dissociation constant Kd was determined as 17.6 nM, the koff is 0.00503 s⁻¹, the kon is 286000 M⁻¹ s⁻¹ and the t1/2 is 2 min.
The molecule B6 displayed a Kd of 27.4 nM, a koff of 0.00833 s⁻¹, a kon of 304000 M⁻¹ s⁻¹ and a t1/2 of 1.4 min.

The target of another test is T3, hPDGFRb.mmh. The experiment in a line: blocking ELISA, biot-hPDGFRb.mmh to coated PDGF-BB. The protocol:
The equilibrated PDGFR-beta/antibody solutions were added to ligand-coated plates, allowed to incubate for 1 hr, and washed. Levels of bound biot-hPDGFR-beta.mmh were detected using HRP conjugated streptavidin. Data were analyzed using Prism software and IC₅₀ values were calculated as the amount of antibody required to achieve 50% reduction of hPDGFR-beta-mmh bound to ligand. Maximum blocking values were also calculated and reflect the ability of the antibody to block relative to baseline. The absorbance measured at the constant amount of 250 pM biot-hPDGFR-beta-mmh on the dose curve is defined as 0% blocking and the absorbance with no added PDGFR-beta is defined as 100%. The absorbance of the wells containing the highest antibody concentration determined the maximum blocking percent.
(In general: In an ELISA, binding on a coated surface is turned into a signal by an enzyme label.)
In the case of B1, the “% Maximum Blocking” value was determined as 88% and the IC50 worked out at 0.12 nM.
The corresponding values for B2 are 80% and 0.9 nM.
Consider B3, for which the “% Maximum Blocking” value came out at 79% and the IC50 worked out at 0.13 nM.
For the molecule B4, the “% Maximum Blocking” value was 82% and half-maximal inhibition (IC50) required 0.09 nM.
With B5, the “% Maximum Blocking” value was determined as 77% and the 50% inhibitory concentration (IC50) was determined as 4.1 nM.
Turning to B6, the “% Maximum Blocking” value amounted to 76% and the midpoint of inhibition, the IC50, lay at 0.1 nM.

Usually Kd stands for the concentration at which binding is half-saturated. Low values mean tighter binding, high ones weaker binding. The koff is the first-order rate constant of dissociation. A word on the kon: it is a measure of how fast the partners come together. A high value points to faster complex formation. In general, IC50 refers to the point on the concentration scale where inhibition reaches its midpoint. A higher IC50 goes with a need for much substance.
